# Results as given in patent publication US20210386829A1, “COMPOSITIONS AND METHODS FOR MODULATING CGRP SIGNALING TO REGULATE INNATE LYMPHOID CELL INFLAMMATORY RESPONSES” (The Broad Institute, Inc., priority 2018, published 2021).
# B1: IL25 (protein, UniProt Q8VHH8 17-169, looked up)
# Interleukin-25: VSLRIQEGCSHLPSCCPSKEQEPPEEWLKWSSASVSPPEPLSHTHHAESCRASKDGPLNSRAISPWSYELDRDLNRVPQDLYHARCLCPHCVSLQTGSHMDPLGNSVPLYHNQTVFYRRPCHGEEGTHRRYCLERRLYRVSLACVCVRPRVMA
# Test system: lung-resident ILCs
# Assay: SMART-Seq2 plate-based scRNA-seq of lung-resident ILCs from PBS-, IL-25- or IL-33-treated mice, differential gene expression by logistic regression (Tables 3, 4)
# Assay type: in vivo, mouse
# From the text: Mice and in vivo ILC activation. C57B1/6J mice were purchased from the Jackson Laboratory. Nmur1-LacZ reporter mice with a LacZ cassette knocked into the Nmur1 locus were rederived from Nmur1^tm1.1(KOMP)Vlcg sperm obtained from the trans-NIH Knock-Out Mouse Project (KOMP) Repository. NMU-deficient mice (NMU-KO) were rederived from B6.129S2-Nmu<tm1Mko> embryos from the RIKEN BioResource Center. For experiments with Nmur1-LacZ (Nmur1-KO) and NMU-KO mice, littermates that were either homozygous or heterozygous for the wild type allele were used as controls. Mice were housed under specific-pathogen-free conditions. For experiments, mice were matched for sex and age, and most mice were 6-10 weeks old. Where indicated, mice were anesthetized with Isoflurane and treated intranasally with the indicated stimuli (500 ng IL-25, 500 ng IL-33, or 20 μg Neuromedin U) daily for three consecutive days. The total administered volume was 20 μl for all conditions. Mice were randomly assigned to treatment groups after matching for sex and age. […] Mice were treated intranasally with 10 μg HDM on day 0, 7, 8, and 9, prior to sacrifice on day 10. All experiments were conducted in accordance with animal protocols approved by the Harvard Medical Area Standing Committee on Animals or BWH IACUC.
# Fluorescence-activated cell sorting of innate lymphoid cells. After dissociation, single cell suspensions were incubated with CD90.2 MicroBeads (Miltenyi Biotec) on ice and enriched for CD90.2^+ cells by magnetic separation using LS columns according to the manufacturer's protocol. CD90.2^+ lung cells were then stained on ice with antibodies for sorting. ILCs were defined as 7AAD^− CD45^+ CD90.2^+ CD127^+ Lineage (CD11b, CD11c, CD19, NK1.1, […], CD4, CD8a, TCRβ, TCRγδ)^− cells and sorted on a BD FACS Aria (BD Biosciences).
# For full-length scRNA-Seq, single ILCs were sorted into 96-well plates containing 5 ul TCL Buffer (QIAGEN) with 1% 2-Mercaptoethanol, centrifuged and frozen at −80° C. SMART-Seq2 protocol was carried out as previously described^23 with minor modifications in the reverse transcription step. cDNA was amplified with 22 cycles and fragmented with one-eighth of the standard Illumina NexteraXT reaction volume. Single-cell libraries were pooled and paired-end sequenced (38 bp×2) with a 75 cycle Nextseq 500 high output V2 kit.
# Analysis of SMART-Seq2 plate-based scRNA-Seq data. Reads were aligned to mm10 using Kallisto (Bray, N. L., Pimentel, H., Meisted, P. & Pachter, L. Near-optimal probabilistic RNA-seq quantification. Nat Biotechnol 134, 525-527, doi:10.1038/nbt.3519 (2016)) quant, version 0.42.3. The R package tximport (Soneson, C., Love, M. I. & Robinson, M. D. Differential analyses for RNA-seq: transcript-level estimates improve gene-level inferences [version 2; referees: 2 approved]. F1000Research 4, doi:10.12688/f1000research.7563.2 (2016)), version 1.2.0, was used to convert the output to gene counts and traditional TPM values. Because of the variability in read counts per cell across plates, even from the same condition, as well as in the number of genes per cell across conditions, QC was performed for each of eight plates individually in order to remove cells that were outliers with respect to either measure. Out of 752 cells, 606 cells met QC criteria (234 from control, 152 from IL-25 treated mice, and 220 from IL-33 treated mice), and the number of genes per cell in this set ranged from 1,625 to 6,375. Genes that were not expressed with log(TPM)>2.5 in at least two cells were removed from further analysis. Subsequent analysis proceeded analogously to the droplet-based RNA-seq analysis, with parameter settings that reflected both the wider dynamic range of expression and much smaller cell numbers. The minimum ILC signature score required in ILC type assignment was 0.3. Variable genes were identified by running MeanVarPlot with x.low.cutoff=0.1, y.cutoff=1.5, and x.high.cutoff=10, resulting in a set of 519 genes. […]
molecule,measurement,value
B1,Med16 expression coeff,−0.61
same,Mfsd1 expression coeff,1.25
same,Mgat1 expression coeff,1.24
same,Mgat5 expression coeff,1.02
same,Mier3 expression coeff,−0.901
same,Mkl2 expression coeff,−1.12
same,Mlec expression coeff,0.715
same,Morc3 expression coeff,0.662
same,Mov10 expression coeff,1.08
same,Mplkip expression coeff,−0.607
same,Mrp63 expression coeff,1.09
same,Mrpl40 expression coeff,−0.837
same,Mrpl52 expression coeff,0.158
same,Mrpl53 expression coeff,−1.87
same,Mrps18a expression coeff,−1.24
same,Ms4a4b expression coeff,3.49
same,Ms4a6b expression coeff,3.22
same,Mtfmt expression coeff,−2.15
same,Mxd1 expression coeff,0.448
same,Mybbp1a expression coeff,−0.514
same,Myg1 expression coeff,−1.33
same,Myo1f expression coeff,0.897
same,Myo1g expression coeff,0.257
same,Naa60 expression coeff,0.241
same,Nbn expression coeff,−0.499
same,Ndufaf3 expression coeff,1.45
same,Neu3 expression coeff,−2.64
same,Nfil3 expression coeff,2.04
same,Nipal1 expression coeff,1.61
same,Nlrc5 expression coeff,0.93
same,Nol6 expression coeff,−1.65
same,Nol9 expression coeff,−0.775
same,Nop56 expression coeff,−0.619
same,Npc2 expression coeff,0.143
same,Npnt expression coeff,0.056
same,Nrip1 expression coeff,0.668
same,Nsmaf expression coeff,1.41
same,Oas1a expression coeff,0.0294
same,Ogfr expression coeff,0.578
same,Omd expression coeff,−1.12
same,Parp3 expression coeff,0.335
same,Parp10 expression coeff,0.371
same,Parp14 expression coeff,0.934
same,Paxip1 expression coeff,−1.15
same,Pdcd1 expression coeff,1.04
same,Pde4b expression coeff,0.735
same,Per1 expression coeff,−0.785
same,Pfas expression coeff,−0.546
same,Phc3 expression coeff,0.476
same,Phf11a expression coeff,1.52
same,Phf11b expression coeff,1.38
same,Picalm expression coeff,1.79
same,Pigv expression coeff,−2.73
same,Pin4 expression coeff,0.928
same,Plac8 expression coeff,0.268
same,Plekha5 expression coeff,−1.01
same,Plxdc2 expression coeff,−0.906
same,Pml expression coeff,1.04
same,Ppif expression coeff,−1.14
same,Ppp1r15a expression coeff,0.186
same,Pydc4 expression coeff,1.52
same,Pyhin1 expression coeff,0.623
same,Rab7l1 expression coeff,1.18
same,Rab8b expression coeff,1.5
same,Rab33b expression coeff,−1.3
same,Rdh1 expression coeff,−2.49
same,Rdh13 expression coeff,−1.37
same,Rilpl2 expression coeff,1.4
same,Rnf125 expression coeff,1.65
same,Rtp4 expression coeff,0.866
same,Samd9l expression coeff,0.773
same,Sbno2 expression coeff,1.09
same,Sdc4 expression coeff,0.206
same,Sdccag3 expression coeff,0.312
same,Sema4a expression coeff,−0.348
same,Sema4d expression coeff,0.548
same,Sesn3 expression coeff,0.328
same,Shank2 expression coeff,−3.19
same,Sipa1 expression coeff,1.56
same,Slc25a24 expression coeff,0.607
same,Slc44a2 expression coeff,0.294
same,Slfn2 expression coeff,0.267
same,Smn1 expression coeff,−1.53
same,Sntb1 expression coeff,1.29
same,Soat1 expression coeff,0.339
same,Socs1 expression coeff,−1.36
same,Socs2 expression coeff,−0.923
same,Socs3 expression coeff,1.02
same,Sp100 expression coeff,0.451
same,Sptssa expression coeff,−0.974
same,Ssr3 expression coeff,0.609
same,St3gal6 expression coeff,−0.764
same,Stab1 expression coeff,1.24
same,Stat1 expression coeff,1.88
same,Syt11 expression coeff,0.291
same,Taf1d expression coeff,1.28
same,Tango6 expression coeff,−1.32
same,Tap1 expression coeff,0.561
same,Tap2 expression coeff,0.406
same,Tet3 expression coeff,1.62
same,Tmem33 expression coeff,1.18
same,Tmem176a expression coeff,−0.146
same,Tmem176b expression coeff,−0.422
same,Tmem209 expression coeff,−0.847
same,Tmem229b expression coeff,0.199
same,Tnfrsf18 expression coeff,−1.25
same,Tnfsf10 expression coeff,−1.18
same,Tpm4 expression coeff,0.311
same,Tradd expression coeff,0.964
same,Trafd1 expression coeff,0.993
same,Trim12c expression coeff,0.974
same,Trim30a expression coeff,1.17
same,Trim34a expression coeff,0.632
same,Trim30d expression coeff,0.527
same,Trip13 expression coeff,−1.91
same,Trp53inp1 expression coeff,1.28
same,Ttc19 expression coeff,0.891
same,Ttc39b expression coeff,0.546
same,Ube2h expression coeff,0.767
same,Usp18 expression coeff,1.1
same,Usp36 expression coeff,−0.645
same,Vdr expression coeff,−0.748
same,Vmp1 expression coeff,1.49
same,Xrcc3 expression coeff,−1.4
same,Zbp1 expression coeff,0.971
same,Zc3h12a expression coeff,−1.14
same,Zcchc10 expression coeff,−1.82
same,Zfand6 expression coeff,0.659
same,Zfc3h1 expression coeff,0.466
same,Zfp110 expression coeff,−0.396
same,Zfp825 expression coeff,−1.4
